Measured values reported in paper PMC13483453, “Ewing sarcoma breakpoint region 1 (EWSR1) protein binds to nonstructural protein 2 and non-coding regions of chikungunya virus genome to inhibit virus replication”.

Assays:
[1] = target: Recombinant histidine-tagged EWSR1 (Ewing sarcoma breakpoint region 1 protein) (UniProt Q01844); experiment: BLI
CHIKV nsP2 [2] = target: T1, CHIKV nsP2 (Chikungunya virus, UniProt Q8JUX6 536-1333); experiment: EMSA; polyIC; figure description says weak; conditions: protein: recombinant; tags: His6-SUMO removed
EWSR1 [3] = target: T2, EWSR1 (UniProt Q01844 1-656); experiment: BLI; 2:1 binding model; conditions: protein: recombinant; tags: N-terminal 6xHis (pET28a)
CHIKV nsP2 [4] = target: T1, CHIKV nsP2; experiment: BLI; 2:1 binding model; conditions: protein: recombinant; tags: His6-SUMO removed
EWSR1 [5] = target: T2, EWSR1; experiment: EMSA; conditions: protein: recombinant; tags: N-terminal 6xHis (pET28a)
CHIKV nsP2 [6] = target: T1, CHIKV nsP2; experiment: EMSA; conditions: protein: recombinant; tags: His6-SUMO removed
EWSR1 [7] = target: T2, EWSR1; experiment: EMSA; polyIC; conditions: protein: recombinant; tags: N-terminal 6xHis (pET28a)
CHIKV nsP2 [8] = target: T1, CHIKV nsP2; experiment: EMSA; polyIC; conditions: protein: recombinant; tags: His6-SUMO removed

T2 sequence (Q01844 whole entry): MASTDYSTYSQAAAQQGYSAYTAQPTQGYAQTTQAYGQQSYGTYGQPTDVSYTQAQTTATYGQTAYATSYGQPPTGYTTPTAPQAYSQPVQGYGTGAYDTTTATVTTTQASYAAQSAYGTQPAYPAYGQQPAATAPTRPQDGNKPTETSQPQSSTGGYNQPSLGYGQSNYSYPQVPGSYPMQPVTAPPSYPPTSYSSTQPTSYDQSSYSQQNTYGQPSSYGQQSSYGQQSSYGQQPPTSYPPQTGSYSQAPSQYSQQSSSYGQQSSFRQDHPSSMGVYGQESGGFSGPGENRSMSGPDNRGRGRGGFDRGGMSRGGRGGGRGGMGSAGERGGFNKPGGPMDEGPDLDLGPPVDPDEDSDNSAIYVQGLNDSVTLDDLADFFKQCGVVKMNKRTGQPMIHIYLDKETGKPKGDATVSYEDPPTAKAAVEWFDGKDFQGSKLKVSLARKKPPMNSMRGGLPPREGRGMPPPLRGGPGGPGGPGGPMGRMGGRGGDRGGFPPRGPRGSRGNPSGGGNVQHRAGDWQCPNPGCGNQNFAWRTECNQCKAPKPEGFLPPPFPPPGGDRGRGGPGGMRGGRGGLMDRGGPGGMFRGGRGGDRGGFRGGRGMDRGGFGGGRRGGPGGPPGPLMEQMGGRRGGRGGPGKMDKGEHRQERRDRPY
Sequence of Recombinant histidine-tagged EWSR1 (Ewing sarcoma breakpoint region 1 protein) (Q01844 whole entry): as above

Full-length CHIKV nsP2 protein (recombinant) (from UniProt Q8JUX6 536-1333) (enzyme)
Kd [1]: 716 nM

B1: 5NCR-RC50 (ssRNA)
RNA: UCUCUUGCUUUGCAGAGUAGAGCAGUAAGAAACUGGUAGGCUACGUGUGU
binding result (CHIKV nsP2 [2]): binds
Kd (EWSR1 [3]): 80.2 ± 0.39 nM

B2: 3NCR48 (ssRNA)
RNA: UCCGAACCCACAGGGACGUAGGAGAUGUUAUUUUGUUUUUAAUAUUUC
Kd (EWSR1 [3]): 91.4 ± 0.37 nM
Kd (CHIKV nsP2 [4]): 92.9 ± 1.6 nM

B3: Random48 (ssRNA)
RNA: GUGAUUCAGAGGUUUUUGACUUUAGUAAAUCGCCCAUCCUUUGAUAGA
binding result (EWSR1 [5]): no binding
binding result (CHIKV nsP2 [6]): binds

B4: 14-mer of 3NCR48 (ssRNA)
RNA: GUUUUUAAUAUUUC
binding result (EWSR1 [7]): binds
binding result (CHIKV nsP2 [8]): binds
